# How the values were obtained:
# [1] = target: recombinant human LAP (R & D) (UniProt P01137)
# [2] = target: plasmin/plasma kallikrein; experiment: cell-based or functional assay
# recombinant human LAP (R & D), sequence (P01137 whole entry, looked up): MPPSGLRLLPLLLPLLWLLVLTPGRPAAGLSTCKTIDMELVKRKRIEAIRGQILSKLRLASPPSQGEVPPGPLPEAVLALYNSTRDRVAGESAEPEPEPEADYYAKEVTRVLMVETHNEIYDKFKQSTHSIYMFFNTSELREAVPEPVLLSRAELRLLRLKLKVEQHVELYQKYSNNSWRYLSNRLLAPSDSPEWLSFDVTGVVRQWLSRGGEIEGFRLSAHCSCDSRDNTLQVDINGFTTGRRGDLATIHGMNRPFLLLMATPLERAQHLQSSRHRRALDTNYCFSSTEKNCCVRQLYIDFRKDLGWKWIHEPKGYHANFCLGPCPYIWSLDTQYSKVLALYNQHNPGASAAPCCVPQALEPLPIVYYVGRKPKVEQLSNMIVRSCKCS
Molecule,"inhibition of generation of active TGF-β in conditioned medium of rat hepatic stellate cells (ELISA, peptide 0.5 mM) [2] [%]",further results
plasma kallikrein (SIGMA),–,"LAP cleavage reaction (western blot: LAP 41 kDa, LAP degradation product 38 kDa) [1]: attenuation of LAP band found in panel A, and generation of LAP degradation product found in panel B"
TGVVRQWLSRG [T200 peptide (Thr-Gly-Val-Val-Arg-Gln-Trp-Leu-Ser-Arg-Gly)],–,"amount of active TGF-β generated into the conditioned medium, relative to control [2]: 74 % of control"
QILSKLRLASP [QP peptide (Gln-Ile-Leu-Ser-Lys-Leu-Arg-Leu-Ala-Ser-Pro)],55,–
QILSQQQQASP [QPQ peptide],90,–
